Publication PMC7119934 (Peptide Characterization and Application Protocols, 2007)

Biological target: the molecule itself
Assay: SEC

## QKQIANQFNKAISQIQESLTTTSTALGKLQDVVNQNAQALNTLVKQLSS [HRN extended (902–950)]
  stoichiometry N: 3
